Source: publication PMC4689322

Molecular target: T1, MBNL1 ZnF3/4 (Homo sapiens, UniProt Q9NR56-2 178-246)
T1 sequence: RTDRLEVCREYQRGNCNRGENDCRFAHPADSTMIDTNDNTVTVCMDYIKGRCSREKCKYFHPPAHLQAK
Test: intrinsic tyrosine fluorescence quenching

B1: hcTNT 18-nt (S10) (ssRNA)
RNA: UCGCUUUUCCCCUCCGCU
In the case of B1, the Kd is reported as 40 ± 10 nM.
